Molecular target: HLA-A2.1 heavy chain with I125-labeled beta2-microglobulin (heterotrimer complex assay) (human)
Assay: dissociation of I125-labeled beta2-microglobulin from heavy chain/peptide/beta2m complex, HPLC gel filtration

HTLV-1 Tax peptide (aa 11-19) (from UniProt P03409 11-19) (peptide; other documents disagree on this pair)
T1/2 (binding half-life): 133 h
